Laboratory results reported in paper PMC4540666.
[ ]: non-standard residue; d: D form. pY = N[C@@H](Cc1ccc(OP(=O)(O)O)cc1)C(=O)O

Tests used:
[1] = biological target: PLCγ1 SH2C domain (C-terminal SH2 domain of PLCγ1) (rat) (UniProt P10686); test: other fluorescence titration
PLCγ1 SH2C-linker (rat) = PLCγ1 SH2C-linker (rat) (UniProt P10686); test: other fluorescence titration

B1: SLP-76 pY173 peptide (Ac-NSMpY173IDRPPTGK-NH2) (peptide)
peptide: Ac-NSM[pY]IDRPPTGK-NH2
SMILES: CC[C@H](C)[C@H](NC(=O)[C@H](Cc1ccc(OP(=O)(O)O)cc1)NC(=O)[C@H](CCSC)NC(=O)[C@H](CO)NC(=O)[C@H](CC(N)=O)NC(C)=O)C(=O)N[C@@H](CC(=O)O)C(=O)N[C@@H](CCCNC(=N)N)C(=O)N1CCC[C@H]1C(=O)N1CCC[C@H]1C(=O)N[C@H](C(=O)NCC(=O)N[C@@H](CCCCN)C(N)=O)[C@@H](C)O
Kd [1]: 1600 nM
Kd (PLCγ1 SH2C-linker (rat)): 2900 nM
